In patent US20200024322A1 (Eli Lilly, published 2020) one finds Ki data, which are given here for two molecules.

The target of one test is T1, human glucagon receptor (human, UniProt P47871 26-477).
T1 construct: whole, on cells; Used as crude membranes of stably transfected HEK293 cells; also called hGcgR; hGLcgR
In words: SPA, [125I]-Gcg displacement, hGcgR membranes.

In the next test the target is T2, human GLP-1 receptor (human, UniProt P43220 24-463).
T2 construct: whole, on cells; Used as crude membranes of stably transfected HEK293 cells; also called hGLP1R; hGLP-1R
The test is described as follows: SPA, [125I]-GLP-1 displacement, hGLP-1R membranes.

The target in another test is T3, human GIP receptor (human, UniProt P48546 22-466).
T3 construct: whole, on cells; Used as crude membranes of stably transfected CHO cells; also called hGIPR
T3 sequence (looked up): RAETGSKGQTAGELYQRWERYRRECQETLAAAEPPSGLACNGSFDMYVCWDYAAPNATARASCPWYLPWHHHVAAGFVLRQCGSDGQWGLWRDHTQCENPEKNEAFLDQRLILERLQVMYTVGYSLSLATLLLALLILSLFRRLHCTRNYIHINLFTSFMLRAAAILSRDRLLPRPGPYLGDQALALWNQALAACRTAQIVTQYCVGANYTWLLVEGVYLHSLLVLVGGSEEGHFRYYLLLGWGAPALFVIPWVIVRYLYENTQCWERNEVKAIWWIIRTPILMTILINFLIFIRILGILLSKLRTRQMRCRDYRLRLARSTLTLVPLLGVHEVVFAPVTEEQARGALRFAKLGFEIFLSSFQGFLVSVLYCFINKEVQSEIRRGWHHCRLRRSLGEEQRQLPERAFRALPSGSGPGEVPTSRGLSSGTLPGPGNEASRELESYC
In words: SPA, [125I]-GIP displacement, hGIPR membranes.

Numbered stars: 1 amine (or outer) side, 2 acyl side, 3 side chain; on linkers, the order of the positions; unused ones are H or OH. Square brackets hold non-standard residues; d marks the D form. Side chains are listed from the residue outwards. Ends that are not written are not given here. * marks the point of attachment. C20 diacid = O=C(O)CCCCCCCCCCCCCCCCCCC(=O)*; γGlu = O=C(O)[C@H](CCC(=O)[*:2])N[*:1]; AEEA = NCCOCCOCC(=O)O; Aib = CC(C)(N)C(=O)O

T1 sequence (P47871 26-477): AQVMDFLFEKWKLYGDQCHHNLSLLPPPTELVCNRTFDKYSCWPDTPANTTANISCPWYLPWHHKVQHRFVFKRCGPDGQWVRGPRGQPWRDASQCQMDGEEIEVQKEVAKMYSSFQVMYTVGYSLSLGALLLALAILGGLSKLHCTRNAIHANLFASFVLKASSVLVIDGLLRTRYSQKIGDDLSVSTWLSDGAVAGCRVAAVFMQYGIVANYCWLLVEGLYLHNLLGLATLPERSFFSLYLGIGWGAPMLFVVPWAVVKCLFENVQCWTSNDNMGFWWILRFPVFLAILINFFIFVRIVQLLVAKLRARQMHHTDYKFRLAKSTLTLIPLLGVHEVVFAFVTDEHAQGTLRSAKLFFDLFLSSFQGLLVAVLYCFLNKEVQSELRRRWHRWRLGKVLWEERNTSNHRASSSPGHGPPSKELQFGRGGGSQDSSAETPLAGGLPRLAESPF

B1: Example 32 (peptide)
peptide: Y[Aib]EGTFTSDYSILLDKIAQ[Aib]K([AEEA-AEEA-γGlu-C20 diacid])FIEYLIEGGPSSGAPPPS-NH2
modifications: N-terminus assumed
SMILES: CC[C@H](C)[C@H](NC(=O)[C@H](CCCCN)NC(=O)[C@H](CC(=O)O)NC(=O)[C@H](CC(C)C)NC(=O)[C@H](CC(C)C)NC(=O)[C@@H](NC(=O)[C@H](CO)NC(=O)[C@H](Cc1ccc(O)cc1)NC(=O)[C@H](CC(=O)O)NC(=O)[C@H](CO)NC(=O)[C@@H](NC(=O)[C@H](Cc1ccccc1)NC(=O)[C@@H](NC(=O)CNC(=O)[C@H](CCC(=O)O)NC(=O)C(C)(C)NC(=O)[C@@H](N)Cc1ccc(O)cc1)[C@@H](C)O)[C@@H](C)O)[C@@H](C)CC)C(=O)N[C@@H](C)C(=O)N[C@@H](CCC(N)=O)C(=O)NC(C)(C)C(=O)N[C@@H](CCCCNC(=O)COCCOCCNC(=O)COCCOCCNC(=O)CC[C@H](NC(=O)CCCCCCCCCCCCCCCCCCC(=O)O)C(=O)O)C(=O)N[C@@H](Cc1ccccc1)C(=O)N[C@H](C(=O)N[C@@H](CCC(=O)O)C(=O)N[C@@H](Cc1ccc(O)cc1)C(=O)N[C@@H](CC(C)C)C(=O)N[C@H](C(=O)N[C@@H](CCC(=O)O)C(=O)NCC(=O)NCC(=O)N1CCC[C@H]1C(=O)N[C@@H](CO)C(=O)N[C@@H](CO)C(=O)NCC(=O)N[C@@H](C)C(=O)N1CCC[C@H]1C(=O)N1CCC[C@H]1C(=O)N1CCC[C@H]1C(=O)N[C@@H](CO)C(N)=O)[C@@H](C)CC)[C@@H](C)CC
What is called Ki is a dissociation constant, usually derived from enzyme kinetics or from competition with a known ligand. Low readings indicate tighter binding, high ones weaker binding. For the molecule B1, the inhibition constant (Ki) with human glucagon receptor came out at 44.7 nM; with human GLP-1 receptor, 3.96 nM; with human GIP receptor, 0.0205 nM.

B2: Example 34 (peptide)
peptide: Y[Aib]EGTFTSDYSILLDKIAQ[Aib]AFIK([AEEA-AEEA-γGlu-C20 diacid])YLIEGGPSSGAPPPS-NH2
modifications: N-terminus assumed
SMILES: CC[C@H](C)[C@H](NC(=O)[C@H](CCCCN)NC(=O)[C@H](CC(=O)O)NC(=O)[C@H](CC(C)C)NC(=O)[C@H](CC(C)C)NC(=O)[C@@H](NC(=O)[C@H](CO)NC(=O)[C@H](Cc1ccc(O)cc1)NC(=O)[C@H](CC(=O)O)NC(=O)[C@H](CO)NC(=O)[C@@H](NC(=O)[C@H](Cc1ccccc1)NC(=O)[C@@H](NC(=O)CNC(=O)[C@H](CCC(=O)O)NC(=O)C(C)(C)NC(=O)[C@@H](N)Cc1ccc(O)cc1)[C@@H](C)O)[C@@H](C)O)[C@@H](C)CC)C(=O)N[C@@H](C)C(=O)N[C@@H](CCC(N)=O)C(=O)NC(C)(C)C(=O)N[C@@H](C)C(=O)N[C@@H](Cc1ccccc1)C(=O)N[C@H](C(=O)N[C@@H](CCCCNC(=O)COCCOCCNC(=O)COCCOCCNC(=O)CC[C@H](NC(=O)CCCCCCCCCCCCCCCCCCC(=O)O)C(=O)O)C(=O)N[C@@H](Cc1ccc(O)cc1)C(=O)N[C@@H](CC(C)C)C(=O)N[C@H](C(=O)N[C@@H](CCC(=O)O)C(=O)NCC(=O)NCC(=O)N1CCC[C@H]1C(=O)N[C@@H](CO)C(=O)N[C@@H](CO)C(=O)NCC(=O)N[C@@H](C)C(=O)N1CCC[C@H]1C(=O)N1CCC[C@H]1C(=O)N1CCC[C@H]1C(=O)N[C@@H](CO)C(N)=O)[C@@H](C)CC)[C@@H](C)CC
In the case of B2, the inhibition constant (Ki) with human glucagon receptor worked out at 134 nM; with human GLP-1 receptor, 3.41 nM; with human GIP receptor, 0.0467 nM.
